In a protein production outcome set (Wang et al. 2014):

assay: label from the status in PepcDB records

Question: With “AQSDGWSPKDHNLIKSVREDGRFLSSYGVVHAMLRNTEPRYAFHRDFSPKEFRKWQKGLRHAMEEIMKFPQIKNSPAPVCIKREQREGYRLEKWEFYPLPKCVSTFLVLIPDNINKPVPAILCIPGSGGNKEGLAGEPGIAPKLNDRYKDPKLTQALNFVKEGYIAVAVDNPAAGEASDLERYTLGSNYDYDVVSRYLLELGWSYLGYASYLDMQVLNWMKTQKHIRKDRIVVSGFSLGTEPMMVLGTLDTSIYAFVYNDFLCQTQERAEVMTMPDKNGRRPFPNSIRHLIPDFWKNFNFPDIVAALAPRPIILTEGGLDRDLDLVRKAYAIVGTPDNVKIYHYKKFSDPDTRKNVEYLPEGLDRNEYFRMVNVDGPNHYFKSELVVPWLRKLLEER” as the sequence, how does the protein production read?
Answer: not failed

Question: Which protein production does the source give for “ARQVTPGQVMVASTVGKLSALLAADLSDEQAQRLGLDTLLPLRESDGPTLFCFHPASGFAWQFSVLARYLSPRWSITGIQSPRPQGPMASAASLDEVCEHHLQTLLAQQPHGPYYLFGYSLGGTLAQGIAARLRQRGEAVAFLGLLDTWPPETQNWAEKEANGLDPEVLAEIDREREAFLAAQQGQASGELFSAIEGNYADAVRLLTTAHSAKFDGKATLFVAEKTRQEGMDPQVVWGPWVGELEVFSQNCAHVDIISPQAFEAIGPVVREILG” here?
Answer: not failed

Question: For “ASIVGSWVEPVPGLEGQVQGIKMEEGGVASSVNMATLVYESWKQEGTKLILTGKSIGNGQTIEFVDTMDIKRLTADSLVLDNQGMEIRYAKQK”, which protein production is on record?
Answer: not failed

Question: Which protein production does the source give for “ASLLARYPPEKLFQAERNFNAAQDLDVSLLEGDLVGVIKKKDPMGSQNRWLIDNGVTKGFVYSSFLKPYNPRRSHSDAS” here?
Answer: not failed

Question: With “ATFFIKMNQKTVPEFKNKHLRLAISQAINKKGYVNSVLNDGSLPSNNFTGVGTADTPDGKDFARTIKSPLKFNPDLAKKNWREAQKELGKNKFTFTMNTQDTPASKIAAEYIKSQIESHLPGVTLKIKQMPFKQKTTLELANNYEASYSGWSPDYPDPTAFLQTMTKNNAQNNTDWSNKEYDQLLKDANSKLLRKLGERNTSLQKAEYILLHEAPVAPVYQ” as the sequence, how does the protein production read?
Answer: failed

Question: Which protein production does the source give for “ATPPISNLTKTASESISNLSEAGSIKKGERELKIGDRVLVGGTKAGVVRFLGETDFAKGEWCGVELDEPLGKNDGAVAGTRYFQCQPKYGLFAPVHKVTKIGFPSTTPAKAKANAVRRVMATTSASLKRSPSASSLSSMSSVASSVSSRPSRTGLLTET” here?
Answer: not failed

Question: For “ATSYMTCSAYQKVQDSEISFPAGVEVQVLEKQESGWWYVRFGELEGWAPSHYLVLDENEQPDPSGKE”, which protein production is on record?
Answer: not failed

Question: Which protein production does the source give for “CGGCGEDVVGDGAGVVALDRVFHVGCFVCSTCRAQLRGQHFYAVERRAYCEGCYVATLE” here?
Answer: not failed

Question: For “CTFKSVADEWVKTKTKLKPKTVQGNWRKLELYAFPKFGEIPVKSLTPIIVQEAFRPIARRGKLETVKRTIQLVNEIMRFAINSGLIQHNVLSGVG”, which protein production is on record?
Answer: failed

Question: With “CVECRKPIGADSKEVHYKNRFWHDTCFRCAKCLHPLANETFVAKDNKILCNKCTTREDSPKCKGCFKAIVAGDQNVEYKGTVWHKDCF” as the sequence, how does the protein production read?
Answer: not failed

Question: For “DAPPAWLRCLAATYPVLAPLPNWGLSESRFRPVRAVANAGALPVVLTRVGREMPEIAATVEEFLAAAKDCGADVEVVDVPHGHHGFETIDLTDESRTAVRHALRTVL”, which protein production is on record?
Answer: failed

Question: With “DDAGKTAIYWLGYDLPPEIPTIVILHTITGTPSSMRELVRDLHQHTGWRIALCVRRGHADLEFSVPRFNLFGSVSDLKQQLDYIQNHFPQSNLYGVGSSAGSGLLVRYLGEEADEAYFKAAFAFCPGYNTETGFEKVHPVYSQYMAKKLLKTFVYKYIDSWQHVENLEEVLSSKNLTEFHLRYYKLAGFKNYQEYSLATNPMHVFKNIKIPLMVLNSQDDPVCHIDNFEPYIPEIQKLSNIVVVTTKKGSHCAFYEGWTPQSWASRLMANYFLQHHQ” as the sequence, how does the protein production read?
Answer: failed

Question: Which protein production does the source give for “DDDDDNGGSSVMNITGIYLEDAKSNVPDRLVDFARLGQLIRIEGEGFNGLKKVYINGYNCYFNPVFVSNKSFLVSVNSKVPTTEADENVRNTIRLVKDGGEYVYDFQIRAAAPSITKISNCMPNVGEPIIVYGSGLTEIAKVVFPGNVVVTEGIISDLDGEYFMVDMPAGVSEEGGSIFVEGSNGGAYSPAYFNYKKGLLLNFDGVGAQGAWGDSESMIQTTELESASIGEGNVSQGAYCRLPLERQLPVAAAKNRCAEVWTAGNGTDPDWLTLGVPAETPVAECAIQFEIYVPEPWSESGFLKICGQNGFNGGEWERDCYNYVPWLVDGKIVPFQTTGWQTVTVPFSEFYKSKASSGAWTTFADVTATRASASYANFGFYFENSDITLDKITGASSDKETEFLSKATSVKIYIDNWRVVPLTKPEYTDFPDEEEDAE” here?
Answer: not failed

Question: With “DDDLEVKEENGVWVLNDGNFDNFVADKDTVLLEFYAPWCGHCKQFAPEYEKIASTLKDNDPPIAVAKIDATSASMLASKFDVSGYPTIKILKKGQAVDYDGSRTQEEIVAKVREVSQPDWTPPPEVT” as the sequence, how does the protein production read?
Answer: not failed

Question: For “DELFNWFYIRSEINSKMSFYIATESDALVSILGFYACDFLIDSRIVPGLWTAMWFTLPQYRNGIGALLMKELVDTNSCSMWPRRIKHEFTNS”, which protein production is on record?
Answer: failed

Question: With “DETIHLERGENLFEIHINKVTFSSEVLQASGDKEPVTFCTYAFYDFELQTTPVVRGLHPEYNFTSQYLVHVNDLFLQYIQKNTITLEVHQAYSTEYETIAACQLKFHEILEKSGRIFCTASLIGTKGDIPNFGTVEYWFRLRV” as the sequence, how does the protein production read?
Answer: not failed

Question: For “DFNPEIFQLESYFKSKYHLKDIEIVSSRKDSDTSEIEKDLAHVAAAMIRKKIKENDKVGIAWGRTLSKVVEAMRPHPVSQVSFVPLAGGPSHINARYHVNTLVYEMSRRFQGSCTFINATLVQENANLAKGILTSKYFEGLMDNWEKLDVAIVGVGGKPKSNEQQWLDLLNQDDFQCLDEEAAVGEITCRFFNHSGDPVNQHLAKRTIGITLEQLQKVPNRIAVAHGNYKAAALLAVLKKGYINHLVTDFSTALNILRLDKDTFVDTIYQKS”, which protein production is on record?
Answer: failed

Question: Which protein production does the source give for “DGDIGQLSKTFNYMVSELKSRRNELIAVRDQIDERRRFSEAVLSGVTAGVAGIDDNGNITIINRSIETMFDIRSEHVIGHSLLSLSAEIDQVFQFARSLGRKNHREQVTLSVAGQERVCNVQITMEKDDG” here?
Answer: failed

Question: For “DGIVELKTVPFDQLVVYEQKLFPAERERFLRLWIKQPNSAAYAVVRDGQIVGYGVIRQSHTGLRIGPLNADNEQIAEQLLLALLAFRSDALVFLDVPDANLEAIKLVQRYGMKPVSEVARMYNKEIPNLLINRVFAVTSLEVG”, which protein production is on record?
Answer: failed

Question: For “DGQPVAMGDVGELVIGGVGLARYLDPVKDREKFSAELGWERAYRSGDHVRLCEDGLYFVGRIDDQVKIGGRRIELGEVEAHVAALPNVAQYAVVVRETAAGEKVLVAYVSPQVPDVDIDTSALDELPRAMVPRLVVLPEIPTTTSGKADKKALPWPLESAQVTGSDFTPTQQWLAQLWVDVLGVPVGDVD”, which protein production is on record?
Answer: failed

Question: For “DISEELDYERGRYLDAMIDNHKYTGKARAIIYGQPELALALAKVCFENGVNVKLIALGAKNKILEEALKEEIKSQREEVLVLDDTDFDTIEKYAKEFNVNLFIGNSDGRRMASRLGIEIIRVGFPIHDRV”, which protein production is on record?
Answer: failed

Question: Which protein production does the source give for “DISKITDVAVMTVEGANDDISAPGQCIAALDLCTGLADSKKANHLEPGAGHYGIFAGRSWRDNIRPLVIDFMNTNSRKGKSLRPANKNSAA” here?
Answer: failed

Question: Which protein production does the source give for “DKLYPCQCGKSFTHKSQRDRHMSMHLGLRPYGCGVCGKKFKMKHHLVGHMKIHTGIKPYECNICAKRFMWRDSFHRHVTSCTKSYEAAKAEQNTTEA” here?
Answer: not failed

Question: Which protein production does the source give for “DKMDGAPSRVLHIRKLPGEVTETEVIALGLPFGKVTNILMLKGKNQAFLELATEEAAITMVNYYSAVTPHLRNQPIYIQYSNHKELKT” here?
Answer: not failed

Question: Which protein production does the source give for “DLREVLDFMLKDEVSKLRKLLVKIKTKKIAEVEYENVVKALKLFKDNYEINEYLMDENTKEFLIKRNILFLNPVEEILKPQSYLVWNAIKRVLQNINDF” here?
Answer: not failed

Question: Which protein production does the source give for “DPGERLYDLNMPAYVKFNYMAEREDELSLIKGTKVIVMEKCSDGWWRGSYNGQVGWFPSNYVTEEGDSPLGDHVG” here?
Answer: not failed

Question: Which protein production does the source give for “DRFPVTPVSREDLAGVLEAVERLRHWRPAAAGAWAVDYRGMLEGVHAQGVFDDGHWADLLRLLELSGAPREFGHGDLVLANVVRSRGRQVLIDWASSALYLPGLDLAQLWMLLGDVPGARARIEVEVADRADDRDGMMPFLVNLTLLLYRERRAHRRF” here?
Answer: failed

Question: With “DVLSSSNFILPDGIGVVMMSRLTNNRLQSRIAGYDVFKELLGVANKKKKRIFLYGAKKDVIKGVVSKISSEYPNIKIAGYSDGYVQDRTLVAKQIARANPDMVFVALGYPHQEKFIHNYRHLFPKAVSIGLGGSFDVFSGNVKRAPSWMIRLNLEWFYRLILNPWRWKRM” as the sequence, how does the protein production read?
Answer: not failed

Question: For “DVREFQPENFARFHPGGSLGRRLLSKVQDEMFSDNIPSVASDADFTSIIHKISSSHLGLTLVNLKDDSLAIITDGDLRRAMESKGRDAFDLVAKDIASINPASISPESNIQKAYEIMESKGITSLIVVESNSVVGIL”, which protein production is on record?
Answer: failed

Question: For “DYIEGVIADISDVYDELRLRKQAEVALQASEAELRSLFSAIPDPLCVVTAQGRVIETVAGNPRQLYSSVEEKVGKTLHQIFEEEQADKFMGYIQQVLRTQQVLTVEYSLQIDGRETWFSARIAPIRHE”, which protein production is on record?
Answer: failed

Question: With “EADMLFSVTVPGSTANLGPGFDSVGMALSRYLKLTVFESDKWSFEAETETVAGIPAGTDNLIYQVAKRTADLYGKEMPPVHVKVWSDIPLARGLGSSAAAIVAAIELADELCGLKLSEADKLHLASLEEGHPDNAGASLVGGLVIGLHEDDETQM” as the sequence, how does the protein production read?
Answer: failed

Question: With “ECSQDCATCSYRLVRPADINFLACVMECEGKLPSLKIWETCKELLQLSKPELPQDGTSTLRENSKPEESHLLAKRYGGFMKRYGGFMKKMDELYPMEPEE” as the sequence, how does the protein production read?
Answer: failed

Question: For “EDFRPVVFVHGLAGSAGQFESQGMRFAANGYPAEYVKTFEYDTISWALVVETDMLFSGLGSEFGLNISQIIDPETLDKILSKSRERLIDETFSRLDRVIDEALAESGADKVDLVGHSMGTFFLVRYVNSSPERAAKVAHLILLDGVWGVDAPEGIPTLAVFGNPKALPALGLPEEKVVYNATNVYFNNMTHVQLCTSPETFAVMFEFINGYKPATT”, which protein production is on record?
Answer: not failed

Question: With “EDPFQPEIKVRCVCGNSLETDSMIQVIWDELTAFIPCEDPRCHVWQHVGCVILPDKPMDGNPPLPESFYCEICRLT” as the sequence, how does the protein production read?
Answer: not failed

Question: Which protein production does the source give for “EDPGDAQVVFARLDAYIRRHLQSEIEVAALAEQAHMSTRSLYALFERQLGESPRQYIRRLRLERIRACLEDPGCRVRNLTELALDFGFAHLGRFAEQYRRQFGELPSETLRRRA” here?
Answer: failed

Question: Which protein production does the source give for “EDVKEFEREETQDKEESVESSLPLNAIEPCVICQGRPKNGCIVHGKTGHLMACFTCAKKLKKRNKPCPVCRQPIQMIVLTYFP” here?
Answer: failed

Question: Which protein production does the source give for “EEAGRSATEIARAVAAVSAPIDLVAAGAAIDSGVNRLIYTRHFLRTMIPNALAKWQQHPGLFDRELVQRATTLREFDDAFTAPLHGFTGVDDYWTRASSKPHLHKITIPALVVNARNDPFVPAVSLPTQDEVGEMVTLWQPDEGGHVGFATGPWPGRIAAMPEAVSDWLGAV” here?
Answer: failed

Question: Which protein production does the source give for “EEKPCGFPHVENGRIAQYYYTFKSFYFPMSIDKKLSFFCLAGYTTESGRQEEQTTCTTEGWSPEPRCFKKCTKPDLSNGYISDVK” here?
Answer: failed

Question: For “EEMEKGFDPKRYARELWFKLQDMMNEGLGYDAVEVLNTLDENPELAHQKFAKVVGVSNYRYYIIQGVGEIVEIKDDGILVKVRENRKVPDLFLSNHIFGNGIVNATGIAKMEDFDRIIDFNLTATELNKIVKEEVVNSFLKQLSKGAGSVGSLVRFIAVFTLLKDEEIKYPIEAIPLYLEIQGGF”, which protein production is on record?
Answer: not failed
